T1: hWH (Wuho, WDR4) (Homo sapiens, UniProt P57081 1-412)
T1 sequence: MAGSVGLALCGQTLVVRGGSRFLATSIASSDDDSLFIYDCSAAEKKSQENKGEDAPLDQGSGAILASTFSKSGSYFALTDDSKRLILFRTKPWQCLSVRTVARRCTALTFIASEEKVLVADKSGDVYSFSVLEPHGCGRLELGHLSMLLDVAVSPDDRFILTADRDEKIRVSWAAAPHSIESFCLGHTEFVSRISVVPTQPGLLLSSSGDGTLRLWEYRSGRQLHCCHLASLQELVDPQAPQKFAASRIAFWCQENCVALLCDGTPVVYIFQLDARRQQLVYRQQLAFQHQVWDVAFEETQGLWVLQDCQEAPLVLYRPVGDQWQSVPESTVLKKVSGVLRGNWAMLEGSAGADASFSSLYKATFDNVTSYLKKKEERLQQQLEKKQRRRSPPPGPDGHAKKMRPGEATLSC


Assays:
hWH (Wuho, WDR4) = molecular target: T1, hWH (Wuho, WDR4); assay: EMSA; hWH 25-1000 nM, no significant affinity; 50 nM DNA, 50 mM Tris pH 8, 50 mM NaCl, 37 C, 10 min, 20 ul; TBE-PAGE; details: protein: recombinant, tags: C-terminal His6 (pET23b), label: 5' fluorophore (FAM on oligo 1, or Cy5 on oligo 4)
FEN1 = FEN1 (Homo sapiens, UniProt P39748 1-380); assay: EMSA; no Mg2+ in binding buffer; FEN1 25-1000 nM; 50 nM DNA, 50 mM Tris pH 8, 50 mM NaCl, 37 C, 10 min, 20 ul; TBE-PAGE; details: protein: recombinant, tags: C-terminal His6, label: 5' fluorophore (FAM on oligo 1, or Cy5 on oligo 4)
Chain of FEN1 (P39748 whole entry): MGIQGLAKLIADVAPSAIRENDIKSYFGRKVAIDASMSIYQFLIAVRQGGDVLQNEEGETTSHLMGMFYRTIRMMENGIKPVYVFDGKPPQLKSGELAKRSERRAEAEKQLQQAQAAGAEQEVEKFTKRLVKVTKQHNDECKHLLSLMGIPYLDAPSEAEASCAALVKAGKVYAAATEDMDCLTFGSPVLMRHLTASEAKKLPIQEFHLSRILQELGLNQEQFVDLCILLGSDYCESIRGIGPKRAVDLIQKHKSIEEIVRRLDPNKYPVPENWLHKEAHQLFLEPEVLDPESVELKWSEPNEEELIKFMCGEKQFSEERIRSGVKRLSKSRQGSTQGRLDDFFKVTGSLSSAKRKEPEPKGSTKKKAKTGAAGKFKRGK

[1] = double flap: 1:15-34 or 1:21-34 pairs with 2:1-14 (14 bp), 5' flap 20 nt, 3:1-16 pairs with 2:15-30 (16 bp), 3' flap 1 nt
[2] = fork: 14 bp duplex (1:21-34 with 2:1-14), 5' arm 20 nt, 3' arm 16 nt

Binder | binding result (hWH (Wuho, WDR4); [1]) | binding result (FEN1; [1]) | binding result (hWH (Wuho, WDR4); [2]) | binding result (FEN1; [2])
Double-flap substrate (dsDNA) DNA 1: GATGTCAAGCAGTCCTAACTTTGAGGCAGAGTCC DNA 2: GGACTCTGCCTCAAGACGGTAGTCAACGTG DNA 3: CACGTTGACTACCGTCC | no binding | binds | – | –
Y-shape substrate (dsDNA) DNA 1: GATGTCAAGCAGTCCTAACTTTGAGGCAGAGTCC DNA 2: GGACTCTGCCTCAAGACGGTAGTCAACGTG | – | – | no binding | binds

Reference: paper PMC4709127, “Wuho Is a New Member in Maintaining Genome Stability through its Interaction with Flap Endonuclease 1”
